Measured values: patent US5753229

Tests used:
[1] = target: Ag 2.15 (FC-2.15 antigen of breast tumor cells; membrane bands of 160 kDa, 130 kDa and 115 kDa) (human)
[2] = target: Ag 2.15 (FC-2.15 antigen of breast tumor cells; membrane bands of 160 kDa, 130 kDa and 115 kDa) (human); test: cell ELISA on MCF-7 cells after periodate oxidation, against untreated cells

Residual clonogenic ability (%) after MAb and rabbit complement [1]: 11.7%
% inhibition of reactivity by 10 mM periodate [2]: 47.1%
B1: monoclonal antibody FC-2.15 (antibody, V domains shown)
VH: VKLQESGGGLVQPGGSLKLSCAASGFDFSRYWMSYVRQAPGKGLEWIGEIDPDSSTINYTPSLKDKFIISRDNAKNTLYLQMSKVRSEDTALYYCARETGTPFDYWGQGTTLTVSS
VL: DIVMTQSPASLSVATGEKVTIRCITSTDIDDDMNWYEQKPGEPPKLLISEGNTLRPGVPSPFSSSGYGTDFVFTIENTHSEDVADYYCLQSDNMPFTFGSGTKLEIKP
